Experimental data: US20140056926A1 (SNU R AND DB FOUNDATION, published 2014)

Target: T1, integrin alpha2b beta3 (UniProt P08514 32-993; P05106 27-718)
T1 construct: also called integrin α2b β3; integrin alpha2 beta3
Test: ELISA on coated integrin alpha2b beta3 (100 ng per well), anti-human Fab-HRP, absorbance 405 nm

EC50 (read off the curve): ~0.8 nM
B1: abciximab (ReoPro) (Fab, V domains shown)
VH: EVQLQQSGTVLARPGASVKMSCEASGYTFTNYWMHWVKQRPGQGLEWIGAIYPGNSDTSYIQKFKGKAKLTAVTSTTSVYMELSSLTNEDSAVYYCTLYDGYYVFAYWGQGTLVTVSA
VL: EIVLTQSPVTLSVTPGDSVSLSCRASRDISNNLHWFQQTSHESPRLLIKYASQSMSGIPSRFSGSGSGTDFTLSINSVETEDFGMYFCQQTNSWPYTFGGGTKLEIK
